According to patent US20240059760A1 (UNIVERSITY OF CHICAGO, published 2024):
Residue numbers refer to the chain shown, from its start. Like-named read-outs stand apart in the source and are kept apart here.

B1: sRBD7 Fab (Fab, V domains shown)
VH: EVQLVESGGGLVQPGGSLRLSCAASGFNVYSSYIHWVRQAPGKGLEWVAYISPYYGSTYYADSVKGRFTISADTSKNTAYLQMNSLRAEDTAVYYCARYWSYGGMDYWGQGTLVTVSS
VL: DIQMTQSPSSLSASVGDRVTITCRASQSVSSAVAWYQQKPGKAPKLLIYSASSLYSGVPSRFSGSRSGTDFTLTISSLQPEDFATYYCQQYYYGALITFGQGTKVEIKR
B2: sRBD1.15 Fab (Fab, V domains shown)
VH: EVQLVESGGGLVQPGGSLRLSCAASGFNFHNSYIHWVRQAPGKGLEWVASISSYSGYTYYADSVKGRFTISADTSKNTAYLQMNSLRAEDTAVYYCARSYQGQEALDYWGQGTLVTVSS
VL: B1 VL with Y92L, G94F, A95S, I97V

Legend:
[1] = biological target: T1, Receptor Binding Domain (RBD) of SARS-CoV-2 S protein (SARS-CoV-2, UniProt P0DTC2 319-541)
[2] = biological target: T1, Receptor Binding Domain (RBD) of …; remark: listed apart in the source

Binder	Kd [1] [nM]	koff [1] [s⁻¹]	kon [1] [M⁻¹ s⁻¹]	Kd [2] [nM]	koff [2] [s⁻¹]	kon [2] [M⁻¹ s⁻¹]
B1	2.55	0.00029	150000			
B2				0.1	0.00011	1e+06
